PMC9709071
Substitutions are numbered along the chain they refer to. Numbers in names are those of the source.

T1: Recombinant DR3-Fc, Q93038
T1 chain: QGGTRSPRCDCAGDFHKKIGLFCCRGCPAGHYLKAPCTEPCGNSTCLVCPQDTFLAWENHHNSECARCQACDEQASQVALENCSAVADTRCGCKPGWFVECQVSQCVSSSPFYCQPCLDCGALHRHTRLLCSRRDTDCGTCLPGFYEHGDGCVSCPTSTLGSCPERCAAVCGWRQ

B1: His-TL1A (TL1W2), O95150 C162L; C202L (protein)
chain: VYAPLRADGDKPRAHLTVVRQTPTQHFKNQFPALHWEHELGLAFTKNRMNYTNKFLLIPESGDYFIYSQVTFRGMTSELSEIRQAGRPNKPDSITVVITKVTDSYPEPTQLLMGTKSVLEVGSNWFQPIYLGAMFSLQEGDKLMVNVSDISLVDYTKEDKTFFGAFLL
B2: His-TL1A (TL1W2), O95150 C162S (protein)
chain: MAEDLGLSFGETASVEMLPEHGSCRPKARSSSARWALTCCLVLLPFLAGLTTYLLVSQLRAQGEACVQFQALKGQEFAPSHQQVYAPLRADGDKPRAHLTVVRQTPTQHFKNQFPALHWEHELGLAFTKNRMNYTNKFLLIPESGDYFIYSQVTFRGMTSESSEIRQAGRPNKPDSITVVITKVTDSYPEPTQLLMGTKSVCEVGSNWFQPIYLGAMFSLQEGDKLMVNVSDISLVDYTKEDKTFFGAFLL
B3: TL1A (TNFSF15): N133Q (protein)
parent chain: B2 chain with S162C
B4: His-TL1A (TL1W2), O95150 C202S (protein)
chain: B2 chain with S162C, C202S
B5: Recombinant DR3-Fc (Fc fusion)
chain: T1 chain

What was measured:
[1] = target: T1, Recombinant DR3-Fc, Q93038; test: ELISA; details: chain shown with the change; value read at the highest DR3-Fc concentration point, about 1000 nM; parent: est. 130; read off a plot
[2] = recombinant expression, Expi293; details: glycan lost; control: wild type
[3] = glycan lost; control: wild type
[4] = target: Fc-His-TL1A (TL1W61) (human); test: ELISA; reversed format: TL1A molecules immobilised, DR3 titrated

| Binder | response (x 10^6 chemiluminescence) [1] | further results |
| --- | --- | --- |
| B1 | 21 | – |
| B2 | 10 | – |
| B3 | – | expression_or_secretion [2]: no change; other: solubility [3]: no change |
| B4 | 9 | – |
| B5 | – | EC50 [4]: 2.2 nM |
